test: soluble on expression in E. coli; label from the status in PepcDB or PDB records

Sequence	soluble on expression in E. coli
MAEDEPDAKSPKTGGRAPPGGAEAGEPTTLLQRLRGTISKAVQNKVEGILQDVQKFSDNDKLYLYLQLPSGPTTGDKSSEPSTLSNEEYMYAYRWIRNHLEEHTDTCLPKQSVYDAYRKYCESLACCRPLSTANFGKIIREIFPDIKARRLGGRGQSKYCYSGIRRKTLVSMPPLPGLDLKGSESPEMGPEVTPAPRDELVEAACALTCDWAERILKRSFSSIVEVARFLLQQHLISARSAHAHVLKAMGLAEEDEHAPRERSSKPKNGLENPEGGAHKKPERLAQPPKDLEARTGAGPLARGERKKSVVESSAPGANNLQVNALVARLPLLLPRAPRSLIPPIPVSPPILAPRLSSGALKVATLPLSSRAGAPPAAVPIINMILPTVPALPGPGPGPGRAPPGGLTQPRGTENREVGIGGDQGPHDKGVKRTAEVPVSEASGQAPPAKAAKQDIEDTASDAKRKRGRPRKKSGGSGERNSTPLKSAAAMESAQSSRLPWETWGSGGEGNSAGGAERPGPMGEAEKGAVLAQGQGDGTVSKGGRGPGSQHTKEAEDKIPLVPSKVSVIKGSRSQKEAFPLAKGEVDTAPQGNKDLKEHVLQSSLSQEHKDPKATPP	soluble
GSSGGPNVPELILQLLQLEPEEDQVRARIVGCLQEPAKSRSDQPAPFSLLCRMADQTFISIVDWARRCMVFKELEVADQMTLLQNSWSELLVLDHIYRQVQYGKEDSILLVTGQEVELSTVAVQAGSLLHSLVLRAQELVLQLHALQLDRQEFVCLKFLILFSLDVKFLNNHSLVKDAQEKANAALLDYTLSHYPHSGDKFQQLLLSLVEVRALSMQAKEYLYHKHLGNEMPRNNLLIEMLQAKQT	soluble
MRSGKIFHHFDQWGIIIRKDMLKQLALFIALFGAVTAWNRQNHFGNPCYLCSCFTVYTDRDVAVPLRPYAMAIDGYDTTEDRCLATCQRDQRCRAAVYGMVGGRSVFTCEFYEKFNTKSVPVYTTYVNMYMKRSSECKLPIAHLSSIEMIPADNSSLKRRAKLEKLIGRKNPFLG	not soluble
MGHHHHHHSHMLACCAIYSPVRCAFPYTETERRFTCKRRIFRIILTLCGRENMKIRALLVAMSVATVLTGCQNMDSNGLLSSGAEAFQAYSLSDAQVKTLSDQACQEMDSKATIAPANSEYAKRLTTIANALGNNINGQPVNYKVYMAKDVNAFAMANGCIRVYSGLMDMMTDNEVEAVIGHEMGHVALGHVKKGMQVALGTNAVRVAAASAGGIVGSLSQSQLGNLGEKLVNSQFSQRQEAEADDYSYDLLRQRGISPAGLATSFEKLAKLEEGRQSSMFDDHPASAERAQHIRDRMSADGIK	not soluble
MDIFSGLFTQVNNNNEEDLRVELQNMKPGEGVIRAEVGPSGVATFKKYFLQDGKLQFEIVKHPI	not soluble
MAHHHHHHMRHMCVTLKRRACTVSFSPFLMSYFQSMLMPYRDSVRSSKSDKASSRTVNEEAKVSLSAFSFLFSEMCTRAHNTPSKASNVEEIEQRLTSLGVLVGARLIMLSSLKDPLELQRRPITIEGALKLFQDKLWSRWFGKPANDLQRETGSDRFFIFDTEPIVLRYVYPSPEYLDGEGRWSINYASFMGGIVEGALKAIGFAAEVLTYHQPEPSKPHQSIFAISFAKHVWDRERRLRG	not soluble
EVKLVESGGGLVLPGGSLRLSCATSGFTFTDYYMTWVRQPPGKALEWLGFIGNKANDYTTEYSASVKGRFTISRDDSQSILYLQMSTLRAEDRATYYCATVYGNYPYFDVWGVGTTVAVSSATTTAPSVYPLVPGCSDTSGSSVTLGCLVKGYFPEPVTVKWNYGALSSGVRTVSSVLQSGFYSLSSLVTVPSSTWPSQTVICNVAHPASKVDLIKEISGP	soluble
MDLSQLTPRRPYLLRAFYEWLLDNQLTPHLVVDVTLPGVQVPMEYARDGQIVLNIAPRAVGNLELANDEVRFNARFGGIPRQVSVPLAAVLAIYARENGAGTMFEPEAAYDEDTSIMN	soluble
MSLSLSTIICIGMAGSGKTTFMQRLNSHLRAEKTPPYVINLDPAVLRVPYGANIDIRDSIKYKKVMENYQLGPNGAIVTSLNLFSTKIDQVIGLVEQKKDKFQNCIIDTPGQIECFVWSASGAIITESFASSFPTVIAYIVDTPRNSSPTTFMSNMLYACSILYKTKLPMIVVFNKTDVCKADFAKEWMTDFESFQAAIKEDQDLNGDNGLGSGYMSSLVNSMSLMLEEFYSQLDVVGVSSFTGDGFDEFMQCVDKKVDEYDQYYKQEREKALNLKKKKEEMRKQKSLNGLMKDLGLNEKSSAAASDNDSIDAISDLEEDANDGLVDRDEDEGVEREYTFPGEERTKGEVNENSAPDLQRRYQEAMQQVGKTASSETAENIAKYIRNEGHHHHHH	soluble
MKEIKFLHIADLHLDSPFIGLSTLPQPLFSAVQESTFQSLERIITIAIKEAVEFVLIAGDIYDSEDQSVRAQARFSKEMKRLEQAGIKAFIIHGNHDFIEKHKEKLQLPGNVHVFSEQVEMAAMETKNGAIVHIYGFSYGERHIRASRVNEYNKQGEADFHIGLLHGSELSSSEDHDVYAPFRIQEITKKGFDYWALGHIHKRQLLAESPSVYYPGNIQGRNRKESGEKGASIVTLSASNTTIDFIATSPIIWEEVIITLPENSEINTFYREITKLLATYQGQSNSFFLHVIVQMANKQKINTTDWLQMLQEETDLTGSTFIWVHKLTIELTNQSDLKNWHEQHLASKEITQAFEKLQDESAFYQTVEALYFESGVSRYLDDLSEEDRQLMLDAALTELGTVLKEVEGDEK	not soluble
MSLKNTTHFIVFDIERNFRPYKSDDPSEIVDIGAVKIEASTMKVIGEFSELVKPGARLTRHTTKLTGITKKDLMNVEKFPQIIERFIQFIGEDSIFVTWGKEDYRFLVHDCTLHGVDCPCMEKERRIDLQKFVFQAYEELFEHTPSLQSAVEQLGLTWEGKQHRALADAENTANILLKAYSERDITKRYKRHGELELVENGKLTEKAKKKMRKWVFKEMRKNTERPFAWSTFESSDTWESITERYYISEPTIELLKKHFRTAVRKAERRIRYLAEMEKNAEVKEGHHHHHH	soluble
MPKVYNSIVVDAPVERVWSRIRNFHDFSWAPSLIKSCKKVGGGGGYSVGARRLLNGEFLDTLIAYSEIERRIMYSMDEGPSPVSSGEIYNYVGNLHLLPVTIDDTTFVEWSGSWESASTEAVEYMNTVYRSLLADLAAEFTSESRRSEWIDQLEHHHHHH	soluble
AEQDMYLLRQSFDKYKTVSAGVPWFSALFGRDSLITASQTLMLNPEIAKETLMLLAAYQGKHEDEWREEAPGKILHELRLGEMARCQEIPHTPYYGTVDATPLWLMLYSEYYSWTHDRETLEQLWPHALAAMDWIDRNMQPSGYLTYHRKSKRGLDNQGWKDSGDCIVDRKGDLANGSIALSEVQAYVYAAKTRLAEIARMKKRLDLFERWQEEARSLKERFNQDFWIEDQDFCALALDGAGKQVDSITSNPGHCLLLGIFTPERAYSVAERLRAPDMFNGWGIRTLSSLSPAYNPMGYHIGSVWPHDNSLIAMGLRSLGLIDQALEIFQGLLDMTSQQPYQRPPELFCGYERNGDRSPVQYPVACTPQAWATGSIFQ	not soluble
DEPKVLIAEVVVEGATPELEQLVYQVISTRPGSTTTRTQLQQDTNAIFATGFFADVNAVPRDTPLGVRITFVVRPYPVLRAVQVAGNQVLTQEKVNEIFAPQIGRTLNLRELQAGIEKINTFYRDNGYILGQVVGTPQVDPDGVVTLQVAEGVVEQVTYRFLNKEGEPTKQRTRDFVISREMDTQPGVVLNQKTVQADLRRLFELGLFEDVQVALEPGQNPRRVNLILNIKERNT	soluble
MGSDKIHHHHHHEGNATTTSYFLNDQQAIDAIDGLYERFHQEGCYGRELFWEQGAACDIVWGRTRGYNSLATLAYTGDESPLRDVFSRMYSTMSRANWIIQELVKKEKGTTLTAVEKRSLGEAYFSRGWAHYLIAYRYGTDKQGVPFVRYEDFPDDYDNSIPPQQATVMDNYKLIIEDMDKAIAYLPIFESYDADNRGRAHQAAAVAFKAKTYAYWATWDATQWNNVIEMVNQLENNYNRDLAPTFAELFSSDLKDYWNAEYLWTIPSIGGALPGGTEFPGIILENKGWGKYNGWGQMKPSYDIYEEMAKDGKGNDRLVRSILEYNQEFPFFGETRKFWSTSDLEAGFMINKYMDAFKYSDPVGEGAVSANGDWPTVRVNFPIIRFAEMLLFRAEAYLMTGQADKATADINRIRLRSNLTPLTGTATMKDLYHERRCELAFEFTDHLFDLKRWNRSSNADIKTLADKELNAHPRIRRYEDRANPESAFTIIGYEDYTNKNAYQAHMMVFPYPSEEITKSNGQLKQNEGY	not soluble
MSQMELIKKLREATGAGMMDVKRALEDAGWDEEKAVQLLRERGAMKAAKKADREAREGIIGHYIHHNQRVGVLVELNCETDFVARNELFQNLAKDLAMHIAMMNPRYVSAEEIPAEELEKERQIYIQAALNEGKPQQIAEKIAEGRLKKYLEEVVLLEQPFVKDDKVKVKELIQQAIAKIGENIVVRRFCRFELGA	soluble
MEAFIRSDQYNFIKSQAYILANGHATANDRGVIQALKSLAIEKIIHVFENLTDEQKELIDTVLTVQNREDAESFLTKINPYVIPFQEVTAQTLKKLFPKAKKLKLPDMEEMDMKEISYLSWVDKGSSRKFIIAKNDKNKFVGLQGTFQSLNKKSICSLCHGHEEVGMFLVEIKGDIPGTFVKKGNYICKDGVACNQNMKSLDKLQDFIERLKK	not soluble
MSLWLAGTWYTGQRIETESQTRLNEINAQLAAAFPEFPVRINQLKLERGFFTSQARYGVEVGKSEETGKPEATVEVDARIEHGPFAPGALARGKLMPQLAFVHAEVANTEDLKKVFEVTKGATPLWSDTVVAYNGDSTSTGGLAAIDYSGDEGKFAFSGATFDGSYQRATQAAIGSLKADSLALDASADDDGGPLLFTLDGLAVTVDSRMGKSGLSIGDSALSVKRLEVKQPEGDAHLTVADMAYAARIGEQDEFINGEISYGAGEITYNGIALGNGRAVFKAERLNAAAIKVVADEYNKAIKLQAEGKDPVPDNAEMRKLLMAQADTLLAGKPVLTLDPVQWKTAQGESVFNARVALSKPASSDLMAVDYFSQAIESIDASATLSKPMIKALMVGYLQSQEGMDAQQAAAAADQQVSSLAGMAEMMNLGKNEGDNIVSKFHYAAGTVDLNGRKMPADQLLGSILGGEGHHHHHH	not soluble
MASCQKSIFLGRLTTFTDSNISPTSLIFSSKMSSRTLRSSSSSNAISTKTQPKTEEAPLIPVTKGPVIRMTSNMADKAQNDHSMWPSTSKFESIWGNVLGERVNKSTIAAIREGMKIENKVTCGCRPGQDCSTNPACRCFQTASRLREHFGSDILTRGKPVKTVDTMYWDRPMFACSGSCGCKGQCNLNALQDICEDPAKKFKITRTDGKGFCVYSARVIKKGSPVLEFSGEITDYLAIKSNADIEQYSIMLYNNETKLCDFFSKEENLSSKYKKILWSAYRSKAWINPLNRGNCARFFSHGCKANMELGRVFQGGFSPADMKIVLFAKEIIKPGTELTFNYGPSYKEIFLGNKCLCEACKKEAVKKLENAVKRILKNSRDPSEPPSKKKSVKKLDGKENVR	not soluble
MGSDKIHHHHHHMNEAQQERRRSVRRDLHSYPEPAWREFYTTSRIAEEIERIGVDQLYIGRNVVDGDARMAVPDDDELEDWQRKARDAGAREDVLEAAAGGFTGALAVLEQGEGPTVALRVDIDALPITESDSVAHAPATEEFRSTNEGYMHACGHDAHATIGLGVLEAVKESDFKGTFKVVFQPAEEVIGGGKAVAESGHLDDVDHLLAIHIGLDHPTGEIVAGVGGFLAVRQFEATFTGETAHAGGHPAQGRDAVQALATAVQNLHAIRRHGDGATRVNAGVVEGGTATNIVPGEATLEGEVRGETTPLKEYMSERADTVMSSAAEMHDCEVAIETTAEAPSAVSDDALAGVVYDAADSVPGVTSRLRTDDLGGSEDATYLMDRVQNHGGTATFVGIGTDHPGGHHTPLFDIDEDSLTIGIDVVTEAISQLSG	not soluble

Source: the DeepSol protein solubility set
